Measured values as given in patent publication US20160158380A1 (INSERM INSTITUT NATIONAL DE LA SANTE ET DE LA RECHERCHE …, published 2016).

What was measured:
[1] = target: T1, CLDN7 (human, UniProt O95471 1-211); test: flow cytometry on parental SW480 cells, which express CLDN7
T1 construct: whole, on cells; Species is inferred from the human SW480 cell line
T1 sequence (looked up): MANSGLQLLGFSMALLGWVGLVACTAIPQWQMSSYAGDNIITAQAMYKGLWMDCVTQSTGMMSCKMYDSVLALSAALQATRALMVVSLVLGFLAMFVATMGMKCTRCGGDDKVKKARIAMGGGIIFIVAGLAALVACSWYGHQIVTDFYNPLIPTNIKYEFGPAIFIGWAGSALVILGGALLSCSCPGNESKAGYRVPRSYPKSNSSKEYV

[2] = target: T2, human CLDN8 (human, UniProt P56748 1-225); test: flow cytometry on SW480 cells transiently transfected with human CLDN8
T2 construct: whole, on cells
T2 sequence (looked up): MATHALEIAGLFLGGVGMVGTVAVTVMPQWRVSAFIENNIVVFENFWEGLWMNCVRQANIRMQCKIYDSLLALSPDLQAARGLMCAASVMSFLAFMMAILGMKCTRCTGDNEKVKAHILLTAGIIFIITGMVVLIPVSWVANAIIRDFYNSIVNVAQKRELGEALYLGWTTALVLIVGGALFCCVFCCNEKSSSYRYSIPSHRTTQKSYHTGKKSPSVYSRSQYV
Experimental: (§1) Hybridomas or mAbs binding was determined with a FACScan fluorescence-activated cell sorter (Quanta apparatus, Beckman Coulter). Cells were seeded in 25 cm² flasks (2×10⁵ cells/flask). After a 48-hour rest, one million cells were pelleted, Washed with PBS-1% BSA and incubated with hybridomas or mAbs, on ice for 1 h. After washing, an appropriate anti-mouse FITC conjugated monoclonal antibody ((1:60 dilution; (Invitrogen) was added (on ice for 45 mn) to detect the primary antibodies. Direct incubation of cells with the secondary antibody was used for background measurements (negative control).
(§2) After transitory transfection on SW480 cells of human cDNA clone of CLDN8 (sc320974, Origene technologies, USA) and murine cDNA clone of CLDN1 (IRAVp968A105D, LifeScience), we analysed by FACs cross-reactivity of 6F6C3 mAb.

[3] = target: T3, murine CLDN1 (murine, UniProt O88551 1-211); test: flow cytometry on SW480 cells transiently transfected with murine CLDN1
T3 construct: whole, on cells; also called mCLDN1
T3 sequence (looked up): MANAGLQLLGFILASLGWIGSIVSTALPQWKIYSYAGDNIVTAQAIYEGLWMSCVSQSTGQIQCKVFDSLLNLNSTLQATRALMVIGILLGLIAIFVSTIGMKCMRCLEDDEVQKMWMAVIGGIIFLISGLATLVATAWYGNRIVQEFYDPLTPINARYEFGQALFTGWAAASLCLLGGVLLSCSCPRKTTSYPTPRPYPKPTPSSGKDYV
Experimental: as §1, §2

Measured: binding result

B1: 6F6C3 mAb (antibody, V domains shown)
VH: QIQLVQSGPELKKPGETVRISCKASGYTFTTSGMQWLQKMPGKGLKWIGWINTHFGEPKYAEDFKGRFAFSLETSASTAYLQISNLKNEDTATYFCAGAGYYGSRYFDVWGAGTTVTVSS
VL: DIVMTQSQKFMSTSVGDRVSITCKASQNVGTAVAWYQQKPGQSPKLLIYSASNRYTGVPDRFTGSGSGTDFTLTISNMQSEDLADYFCQQYSSYPLTFGGGTKLEIK
notes: Mouse hybridoma monoclonal antibody, IgG3 heavy chain and kappa light chain; also called mAb6F6C3; MAb 6F6C3
no binding (tested: 10 µg/mL): [1] | [2] | [3]
